US20190077836A1 (PANASONIC INTELLECTUAL PROPERTY MANAGEMENT, published 2019)

B1: VHH antibody including the amino acid sequence represented by SEQ ID NO: 8 (VHH)
VHH: QVQLVESGGGLVQTGGPLRLSCAVSDRTDSNYAMGWFRQAPGKEREFVAAISGTGYVTGYADSARNRFTLSRDNGKNAVYLQMNSLEPADTAVYYCAATSDQRYPGPRSSGYDYWGQGTQVTVSS
B2: monoclonal phage displaying the VHH antibody (DNA SEQ ID NO: 18, amino acid sequence SEQ ID NO: 8) (VHH)
VHH: B1 VHH

How the values were obtained:
[1] = biological target: recombinant nucleoprotein (NP) protein derived from influenza virus H1N1 to which a Flag tag was fus (influenza virus H1N1)
recombinant nucleoprotein (NP) protein derived from influenza virus H1N1 to which a Flag tag was fus (influenza virus H1N1), sequence (P03466 whole entry): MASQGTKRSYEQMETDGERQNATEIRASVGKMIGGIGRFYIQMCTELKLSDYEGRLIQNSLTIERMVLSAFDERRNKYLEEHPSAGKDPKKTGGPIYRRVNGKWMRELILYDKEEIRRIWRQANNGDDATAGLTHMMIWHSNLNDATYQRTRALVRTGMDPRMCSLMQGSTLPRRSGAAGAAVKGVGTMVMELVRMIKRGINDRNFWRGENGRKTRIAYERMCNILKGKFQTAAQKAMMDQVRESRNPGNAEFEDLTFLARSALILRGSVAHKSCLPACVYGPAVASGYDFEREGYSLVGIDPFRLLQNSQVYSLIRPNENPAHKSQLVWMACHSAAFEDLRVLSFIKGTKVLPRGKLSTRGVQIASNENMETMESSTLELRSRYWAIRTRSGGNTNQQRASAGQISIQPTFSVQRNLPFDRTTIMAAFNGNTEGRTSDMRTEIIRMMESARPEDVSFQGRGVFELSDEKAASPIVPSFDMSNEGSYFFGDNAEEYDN

[2] = biological target: T1, recombinant intranuclear protein (SEQ ID NO: 24) derived from a type-A influenza virus H1N1 (A/Puerto … (type-A influenza virus H1N1 (A/Puerto …, UniProt P03466 1-498))); experiment: phage ELISA on immobilised NP, anti-M13 antibody detection, absorbance at 450 nm
T1 construct: also called NP; NP antigen
T1 sequence (P03466 whole entry): as above

Row | Binder | Kd [1] [nM] | binding result [2]
1 | B1 | 0.199 | –
2 | B2 | – | binds
